Source: US6207419A, “Thrombin inhibitory agents and methods of using same” (The University of North Carolina at Chapel Hill, priority 1999, dated 2001)

Legend:
thrombin [1] = test: Plasma-based thrombin inhibition assay; type: biochemical, human; settings: for Inhibition Rate k2 × 10^8 (M^-1 min^-1), thrombin in plasma: 10 nM serpin
Procedure: The assay to evaluate rHCII (wt and rHCII-CHis6) in plasma was designed based on previously published methods (Tollefsen, D. M., and Pestka, C. A. (1985) Blood 66(4), 769-774; Griffith, M. J., Carraway, T., White, G. C., and Dombrose, F. A. (1983) Blood 61(1), 111-118). All assays were performed at room temperature in 96-well microtiter plates previously coated with 2 mg/mL BSA. This assay was performed using normal hemostasis reference plasma (REF), human antithrombin III-deficient plasma (DEF), or a 50:50 mixture of these plasmas (REF/DEF). Within the assay, 10 nM rHCII or rHCII-CHis6 was incubated for 15 sec with I nM thrombin and 1 μg/mL heparin or 50 μg/mL dermatan sulfate, in the presence of a 1:100 dilution of plasma. Residual thrombin activity was measured with 300 μM GPA and 2 mg/mL pB. Substrate cleavage was measured by color development at […] on a Vmax Kinetic Microplate Reader. Second order rate constants were measured at least in triplicate on two recombinant protein preparations as described in Example 4.

thrombin [2] = test: pH titration of thrombin inhibition; type: biochemical; settings: pH 6.2 to pH 8; FIG. 6
Source text: Therefore, it is possible that the enhanced thrombin inhibitory activity of rHCII-CHis6 (assayed at pH 7.4) is attributable to a charge on the carboxyl terminal tag. An assay was designed to measure thrombin inhibition by rHCII-CHis6 and wt-rHCII from pH 6.2 to pH 8.

thrombin [3] = test: Thrombin inhibition in the absence of glycosaminoglycan; type: biochemical, human
Procedure: All assays were performed at room temperature in 96-well microtiter plates previously coated with 2 mg/mL BSA.
(§1) Residual thrombin activity was measured with 150 μM GlyProArg-NA and 1 mg/mL pB in the absence of glycosaminoglycan, 2 mg/mL pB in the presence of heparin and 4 mg/mL in the presence of dermatan sulfate. Residual factor Xa activity was measured with 500 μM Spectrozyme FXa and 2mg/mL pB in the presence or absence of glycosaminoglycan. Residual chymotrypsin activity was measured with 150 μM AlaAlaProPhe-NA and residual trypsin activity was measured with 150 μM GlyProArg-NA.
Assays were performed at least in triplicate on two or more recombinant protein preparations.

[4] = Heparin-Sepharose affinity chromatography; type: binding; settings: NaCl gradient, 20 mM Hepes pH 7.4
Procedure: 100 μL of each fraction was aliquoted onto a 96-well microtiter plate and ELISA was performed. The peak elution ionic strength was determined by plotting 405 nm color development and NaCl concentration against the fraction number. All samples were run at least in triplicate using two or more protein preparations. Recombinant ATIII samples were run similarly to the HCII samples, except the elution gradient was run from 50 mM to 2 M NaCl.

[5] = test system: plasma-purified α-thrombin; test: Thrombin inhibition with heparin before and after carboxypeptidase A digest; type: biochemical, human; settings: 2 hr, room temperature, FIG. 3
Procedure: Forty ng of CPA was combined with approximately 1 μg of recombinant protein and incubated at room temperature. Following a 2-hr incubation at room temperature, 2 mM EDTA was added to quench CPA activity. Controls were run in which EDTA was added to the reaction prior to the addition of CPA. CPA digested proteins were then assayed according to previously mentioned procedures.

chymotrypsin = test: Chymotrypsin inhibition in the absence of glycosaminoglycan; type: biochemical
Procedure: Protease inhibition rates were determined as described previously (Rogers, S. J., Pratt, C. W., Whinna, H. C., and Church, F. C. (1992) J. Biol. Chem. 267(6), 3613-3617; Whinna, H. C., Choi, H. U., Rosenberg, L. C., and Church, F. C. (1993) J. Biol. Chem. 268, 3920-3924; Ciaccia, A. V., Cunningham, E. L., and Church, F. C. (1995) Protein Express. Purific. 6, 806-812; Ciaccia, A. V., Willemze, A. J., and Church, F. C. (1997) J. Biol. Chem. 272(2), 888-893). All assays were performed at room temperature in 96-well microtiter plates previously coated with 2 mg/mL BSA.
In the absence of glycosaminoglycan, 50-100 nM rHCII (wt, CHis6, CHis5 Pro, L444R, or L444R-CHis6) or rATIII (wt or CHis6) was incubated with 1 nM thrombin, 0.5 nM Factor Xa, 2 nM chymotrypsin, or 5 nM trypsin, in the presence of 1 mg/mL Polybrene (pB) (for thrombin and Factor Xa) and 2 mg/mL BSA in HNPN, pH 7.4.
as §1, with “GlyProArg-NA. Substrate cleavage was measured by color development at […] on a Vmax Kinetic Microplate Reader (Molecular Devices).” for “GlyProArg-NA.”
Assays were performed at least in triplicate on two or more recombinant protein preparations. All inhibition studies were measured under pseudo-first order conditions where inhibitor [I] is at least ten-fold higher than enzyme (protease) [E], and second-order rate constants were calculated as described previously (Ciaccia, A. V., Cunningham, E. L., and Church, F. C. (1995) Protein Express. Purific. 6, 806-812; Ciaccia, A. V., Willemze, A. J., and Church, F. C. (1997) J. Biol. Chem. 272(2), 888-893).

B1: rHCII-CHis6: Recombinant HCII with six histidine residues added at the carboxyl terminus; SEQ ID NO:5 (protein)
chain: MKHSLNALLIFLIITSAWGGSKGPLDQLEKGGETAQSADPQWEQLNNKNLSMPLLPADFHKENTVTNDWIPEGEEDDDYLDLEKIFSEDDDYIDIVDSLSVSPTDSDVSAGNILQLFHGKSRIQRLNILNAKFAFNLYRVLKDQVNTFDNIFIAPVGISTAMGMISLGLKGETHEQVHSILHFKDFVNASSKYEITTIHNLFRKLTHRLFRRNFGYTLRSVNDLYIQKQFPILLDFRTKVREYYFAEAQIADFSDPAFISKTNNHIMKLTKGLIKDALENIDPATQMMILNCIYFKGSWVNKFPVEMTHNHNFRLNEREVVKVSMMQTKGNFLAANDQELDCDILQLEYVGGISMLIVVPHKMSGMKTLEAQLTPRVVERWQKSMTNRTREVLLPKFKLEKNYNLVESLKLMGIRMLFDKNGNMAGISDQRIAIDLFKHQGTITVNEEGTQATTVTTVGFMPLSTQVRFTVDRPFLFLIYEHRTSCLLFMGRVANPSRSHHHHHH
modifications: C-terminal His6 tag
For B1, the “increase of thrombin inhibition rate compared to wt-rHCII” value (“increase of thrombin inhibition rate” for short) (thrombin [1]; 50 μg/mL dermatan sulfate, each of the plasma conditions) was 1.2-1.3 fold, the “increase of thrombin inhibition rate” value (thrombin [1]; 50:50 mixture of REF/DEF, 1 μg/mL heparin) was 1.5 fold and the “increase of thrombin inhibition rate” value (thrombin [1]; DEF plasma, 1 μg/mL heparin) was 4.6 fold. For the same molecule, the “Inhibition Rate k2 × 10^8 (M^-1 min^-1), thrombin in plasma” value (thrombin [1]; Dermatan Sulfate (50 μg/mL), 50:50 Mixture (REF/DEF) plasma 1:100) was 7.0 × 10^8 (M^-1 min^-1), the “Inhibition Rate k2 × 10^8 (M^-1 min^-1), thrombin in plasma” value (thrombin [1]; Dermatan Sulfate (50 μg/mL), ATIII Deficient (DEF) plasma 1:100) was 7.5 × 10^8 (M^-1 min^-1) and the “Inhibition Rate k2 × 10^8 (M^-1 min^-1), thrombin in plasma” value (thrombin [1]; Dermatan Sulfate (50 μg/mL), Normal Reference (REF) plasma 1:100) was 7.2 × 10^8 (M^-1 min^-1). For the same molecule, the “Inhibition Rate k2 × 10^8 (M^-1 min^-1), thrombin in plasma” value (thrombin [1]; Heparin (1 μg/mL), 50:50 Mixture (REF/DEF) plasma 1:100) was 2.8 ± .18 × 10^8 (M^-1 min^-1), the “Inhibition Rate k2 × 10^8 (M^-1 min^-1), thrombin in plasma” value (thrombin [1]; Heparin (1 μg/mL), ATIII Deficient (DEF) plasma 1:100) was 1.2 ± .10 × 10^8 (M^-1 min^-1) and the “Inhibition Rate k2 × 10^8 (M^-1 min^-1), thrombin in plasma” value (thrombin [1]; Heparin (1 μg/mL), Normal Reference (REF) plasma 1:100) was 3.3 ± .37 × 10^8 (M^-1 min^-1). For the same molecule, the “increase of thrombin inhibition rate” value (thrombin [1]; REF plasma, 1 μg/mL heparin) was 1.5 fold, the “inhibition of thrombin over pH titration, in words” value (thrombin [2]) was “greater than that by wt-rHCII” and the “Ratio (mutant/wt serpin), thrombin” value (thrombin [3]) was 1.48. The “rate of thrombin inhibition relative to wt-rHCII” value (thrombin [3]) was 1.5 fold, the “k2 × 10^4 (M^-1 min^-1), thrombin” value (thrombin [3]; pH 7.4, mean ± S.D.) was 1.92 ± .10 × 10^4 (M^-1 min^-1) and the “Heparin-Sepharose [NaCl], peak elution concentration” value [4] was 575 mM. For the same molecule, the “change of heparin-dependent thrombin inhibition after CPA digest, in words” value [5] was “shifts to lower rates of inhibition”, the “Ratio (mutant/wt serpin), chymotrypsin” value (chymotrypsin) was “.860” and the “chymotrypsin inhibition compared with wt-rHCII, in words” value (chymotrypsin) was “essentially the same”. For the same molecule, the “k2 × 10^4 (M^-1 min^-1), chymotrypsin” value (chymotrypsin; pH 7.4, mean ± S.D.) was 61.0 ± 16 × 10^4 (M^-1 min^-1).
